{
  "source": "patent US20040063116",
  "proteins": {"B1": {"name": "plasmepsin II (protein)", "chain": "MDITVREHDFKHGFIKSNSTFDGLNIDNSKNKKKIQKGFQILYVLLFCSVMCGLFYYVYENVWLQRDNEMNEILKNSEHLTIGFKVENAHDRILKTIKTHKLKNYIKESVNFLNSGLTKTNYLGSSNDNIELVDFQNIMFYGDAEVGDNQQPFTFILDTGSANLWVPSVKCTTAGCLTKHLYDSSKSRTYEKDGTKVEMNYVSGTVSGFFSKDLVTVGNLSLPYKFIEVIDTNGFEPTYTASTFDGILGLGWKDLSIGSVDPIVVELKNQNKIENALFTFYLPVHDKHTGFLTIGGIEERFYEGPLTYEKLNHDLYWQITLDAHVGNIMLEKANCIVDSGTSAITVPTDFLNKMLQNLDVIKVPFLPFYVTLCNNSKLPTFEFTSENGKYTLEPEYYLQHIEDVGPGLCMLNIIGLDFPVPTFILGDPFMRKYFTVFDYDNHSVGIALAKKNL"}},
  "key": {"[1]": {"biological_target": "T1, RNase A zymogen with 104/105 termini, P61823", "T1 chain": "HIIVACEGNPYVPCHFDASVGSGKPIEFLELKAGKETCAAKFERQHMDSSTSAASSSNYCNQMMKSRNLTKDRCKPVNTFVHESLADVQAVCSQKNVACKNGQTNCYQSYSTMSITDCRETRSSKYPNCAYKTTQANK"}, "[2]": {"biological_target": "T2, RNase A zymogen with 113/114 termini, P61823", "T2 chain": "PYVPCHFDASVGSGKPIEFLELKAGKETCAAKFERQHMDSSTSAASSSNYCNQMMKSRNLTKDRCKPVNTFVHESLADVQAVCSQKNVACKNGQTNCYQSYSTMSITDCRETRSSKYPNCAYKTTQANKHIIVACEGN"}, "[3]": {"biological_target": "RNase A zymogen with 20/21 termini, P61823", "sequence (P61823 whole entry, looked up)": "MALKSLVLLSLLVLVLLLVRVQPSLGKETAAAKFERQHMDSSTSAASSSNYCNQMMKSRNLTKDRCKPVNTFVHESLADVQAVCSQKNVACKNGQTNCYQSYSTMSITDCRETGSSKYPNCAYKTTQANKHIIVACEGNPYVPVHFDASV"}, "[4]": {"biological_target": "T3, RNase A zymogen with 67/71 termini, P61823", "T3 chain": "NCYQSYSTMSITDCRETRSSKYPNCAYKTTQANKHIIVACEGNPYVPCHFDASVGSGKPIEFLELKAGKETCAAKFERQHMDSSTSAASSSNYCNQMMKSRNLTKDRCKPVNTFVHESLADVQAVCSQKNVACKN"}, "[5]": {"biological_target": "T4, RNase A zymogen with 88/89 termini, P61823", "T4 chain": "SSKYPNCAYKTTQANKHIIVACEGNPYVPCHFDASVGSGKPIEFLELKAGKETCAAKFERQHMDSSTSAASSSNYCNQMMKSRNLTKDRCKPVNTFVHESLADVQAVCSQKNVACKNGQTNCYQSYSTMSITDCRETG"}},
  "data": [
    {"protein": "B1", "values": [
      {"measurement": "proteolytic cleavage of the zymogen (SDS-PAGE) and gain of ribonucleolytic activity", "setting": "[1]", "value": "The proteolytic cleavage by plasmepsin II was complete within 10 minutes at an approximately 1:100 molar ratio of protease to zymogen"},
      {"measurement": "proteolytic cleavage of the zymogen (SDS-PAGE) and gain of ribonucleolytic activity", "setting": "[2]", "value": "The proteolytic cleavage by plasmepsin II was complete within 10 minutes at an approximately 1:100 molar ratio of protease to zymogen"},
      {"measurement": "proteolytic cleavage of the zymogen (SDS-PAGE) and gain of ribonucleolytic activity", "setting": "[3]", "value": "The proteolytic cleavage by plasmepsin II was complete within 10 minutes at an approximately 1:100 molar ratio of protease to zymogen"},
      {"measurement": "proteolytic cleavage of the zymogen (SDS-PAGE) and gain of ribonucleolytic activity", "setting": "[4]", "value": "The proteolytic cleavage by plasmepsin II was complete within 10 minutes at an approximately 1:100 molar ratio of protease to zymogen"},
      {"measurement": "proteolytic cleavage of the zymogen (SDS-PAGE) and gain of ribonucleolytic activity", "setting": "[5]", "value": "The proteolytic cleavage by plasmepsin II was complete within 10 minutes at an approximately 1:100 molar ratio of protease to zymogen"}
    ]}
  ]
}
